Experimental data: IntAct's records for PubMed 9468140

B1: Retinoblastoma-associated protein (Homo sapiens), P06400 (parent)
chain: MPPKTPRKTAATAAAAAAEPPAPPPPPPPEEDPEQDSGPEDLPLVRLEFEETEEPDFTALCQKLKIPDHVRERAWLTWEKVSSVDGVLGGYIQKKKELWGICIFIAAVDLDEMSFTFTELQKNIEISVHKFFNLLKEIDTSTKVDNAMSRLLKKYDVLFALFSKLERTCELIYLTQPSSSISTEINSALVLKVSWITFLLAKGEVLQMEDDLVISFQLMLCVLDYFIKLSPPMLLKEPYKTAVIPINGSPRTPRRGQNRSARIAKQLENDTRIIEVLCKEHECNIDEVKNVYFKNFIPFMNSLGLVTSNGLPEVENLSKRYEEIYLKNKDLDARLFLDHDKTLQTDSIDSFETQRTPRKSNLDEEVNVIPPHTPVRTVMNTIQQLMMILNSASDQPSENLISYFNNCTVNPKESILKRVKDIGYIFKEKFAKAVGQGCVEIGSQRYKLGVRLYYRVMESMLKSEEERLSIQNFSKLLNDNIFHMSLLACALEVVMATYSRSTSQNLDSGTDLSFPWILNVLNLKAFDFYKVIESFIKAEGNLTREMIKHLERCEHRIMESLAWLSDSPLFDLIKQSKDREGPTDHLESACPLNLPLQNNHTAADMYLSPVRSPKKKGSTTRVNSTANAETQATSAFQTQKPLKSTSLSLFYKKVYRLAYLRLNTLCERLLSEHPELEHIIWTLFQHTLQNEYELMRDRHLDQIMMCSMYGICKVKNIDLKFKIIVTAYKDLPHAVQETFKRVLIKEEEYDSIIVFYNSVFMQRLKTNILQYASTRPPTLSPIPHIPRSPYKFPSSPLRIPGGNIYISPLKSPYKISEGLPTPTKMTPRSRILVSIGESFGTSEKFQKINQMVCNSDRVLKRSAEGSNPPKPLKKLRFDIEGSDEADGSKHLPGESKFQQKLAEMTSTRTRMQKQKMNDSMDTSNKEEK

Variants of: B1
Details: with hdac1_human HDAC1, Q13547
Chain of hdac1_human HDAC1, Q13547 (Q13547 whole entry): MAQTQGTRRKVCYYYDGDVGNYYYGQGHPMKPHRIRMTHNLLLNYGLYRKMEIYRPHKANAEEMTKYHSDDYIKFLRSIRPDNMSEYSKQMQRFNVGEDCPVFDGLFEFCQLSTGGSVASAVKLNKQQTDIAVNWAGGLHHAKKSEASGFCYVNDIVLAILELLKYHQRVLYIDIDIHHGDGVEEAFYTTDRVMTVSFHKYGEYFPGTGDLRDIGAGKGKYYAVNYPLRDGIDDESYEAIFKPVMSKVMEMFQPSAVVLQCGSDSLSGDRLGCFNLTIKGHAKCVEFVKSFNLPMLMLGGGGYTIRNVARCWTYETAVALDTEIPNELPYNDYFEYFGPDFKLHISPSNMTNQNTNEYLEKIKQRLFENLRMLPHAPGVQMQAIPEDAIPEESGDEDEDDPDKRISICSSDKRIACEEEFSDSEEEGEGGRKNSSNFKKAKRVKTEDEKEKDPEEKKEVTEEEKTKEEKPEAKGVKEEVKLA

| effect of a mutation on the interaction | Variant |
| --- | --- |
| disrupting interaction | C706F |
